Measurements published in a protein production outcome set (Wang et al. 2014).

Assay: label from the status in PepcDB records
With “QRSTFGTKHMVFRTDQLIDGIERNVRITSEEVNAALPVPLLDRQDPGAILISGSSYTEPSEALQTMREAMTQEKFSGSVEIPLGIVRALLDLGFTDEAASWLEDLVPRLGNEWRHQWYSGVTSLLLDDYLTAQQHFNEVYNILPGESAPKLARAAVCEMLLQEKGLESTALLDPAVTVAAADIKGEGMSNIWRELTSDPATLRFKAIYLYALVWRTNPTTVSSAFGLARQLAAENQIDLAVSTLDRVPQNSTHRRMAELTAILHLLGDLSEARLRRAARRLEAIPTNEPRFLQIQIAIMNAALQWLRTGGEAANDPIFEYPFTQRGLRNGLSATLRQLARSAPSSHRYALVDVANQVRPMTWF” the protein production was “not failed”. For “QSLELGTMQPSFTSVTGKGGVKVIDGSSVKFGRFDGAEPHCVGLTDLVTEQDGSSMAAGFMQWDNAFFPWTLNYDEIDMVLEGELHVRHEGETMIAKAGDVMFIPKGSSIEFGTPTSVRFLYVAWPANWQSV”, the protein production was “not failed”. In the case of “QSNVVIMQDPGGGYGDALRKVMYDPFEKETGIKVVTVQEARSGPRIKAQAEAGKAQWDLTFIFDQETKLLGDCCLADIDYSKLSESAHKTLAAMPDNLKRKKGVALQVIGVGLVYNKDKFKGDKAPQTWADFWDVKKFPGRRCMPAWPRFTFEAALMADGVTKDKLYPIDMDRALKKLKEIKPHVVKWWTTAAQPPQLILDGEADMCLAYTGSMSKLALEGAPIDLTFNQGFVYYDFFSIPKGAPNYDNALKLLSWRLDPKRAAQLTSTFPVALPSKVVFDAATDKNIARYWANNPENVAKAIEWSPDFWGAPSPAGNSTNEEYGQEKLNAMLAQ”, the protein production was “not failed”. For “QYCWQHRFPTGYFSICDRYMNGTCPEGNSCKFAHGNAELHEWEERRDALKMKLNKA”, the protein production was “not failed”. With “RAKALQKVKEAITLHGGQTILSTGITGDDARLAKAVCEAGVKLLEPNHPALALARGHKGVSNMHAAEQIRHEITNSQMAEAVHGVRNVVPDDIFITVGIAGGFTETLPVPLSEKEILEIARAGADGLHTHKSDWDDLQDIVNLAHQYGLTVDAYIGHPDDLHTFGIPARTPEEVASVAKRMQDIGVDMIGLMTGMSYEGVAAGDIPQMIKDRLRALVGAVDVPTLAEGGINLANAKAFKDTGVNILVVGTAI” the protein production was “failed”. In the case of “RDFLPALGSMRPPIIIHRAGKKYGFTLRAIRVYMGDSDVYTVHHMVWHVEDGGPASEAGLRQGDLITHVNGEPVHGLVHTEVVELILKSGNKVAISTTPLENTSIKVGPARKGSY”, the protein production was “failed”. With “RDRRDSRLRVAASMTIAEYLLPGWLVALRAQLPDTAVSLLAGNSAAVAERLLADDADLGFVEGVSVPTGLDSAVIGHDRLIVVTAPGHPWARRRRPLEAAELAATPLILREKGSGTRQVLDAALGGLARPLIELSSTTAVK” the protein production was “failed”. With “REHNYPDTCFEHFVASSVAVYPVFELAAKSTGRIGQLLRSAVYESSAWQQGGNTHFGAFLLLIPLAMAAGEISREQGEQPGCGKTFFRIEAEEFENLASHAHAFVRETDCEDAVEFYRAFGHAGVRVNSVEEFDLEDPEATSDLRNQNITLYSLMEIAKGYDLIANEWTSGFGRCLEGAKIILDFMDARNCREEALAGGSVSICSGTGINEAVVYTFLKLLSKHRDTFIQTKFDAETADYVSSRAGEVLSGWEISGKKAGDFASILPRIQEFDSELLDKRINPGSTADIIIAALFIALLGGLR” the protein production was “failed”. For “RFEHGTVLAECLSPASPDTSCELLKRAAKFLAYVHGSDDPASGRIGGVRKEVRNEVRMWLRAVLPDEPSDGANELFEEWWALLEGIGLPPQPRRDAHAFNWLVTDNDRIIAVDLEAARWRPMGYELAQLT”, the protein production was “failed”. With “RGIAVYVEHHNGNIHPVTYELIGKAREMASKIKQPVYCVFVGKDIKDKCSNLISYGVDEVFVYDEDEFKDFRIEPYSKAIENFIDKIKPTIVLVGGTTLGRSLAPRLAARFRTGLTADCTILDIQSNTDLDQIRPAFGGNIMAHINTPNNRPQFATVRYKIFSAPEKIENTTGKITLCKVEKKELKSKIKVLS” the protein production was “not failed”. In the case of “RGIIRLIKDNKSLTMKNTEVMLHGSSLAFDASTLEIYAALLNGACLSIIDKEDLIDSQTLKEKLKNDHVNRAFFTTPLFNSLCEQDPSVFNELEQVIIGGDRASNKHLKIVMKNSKKTQFYNGYGPTENTVFTTMHNIQYSELEGDIPIGKA”, the protein production was “failed”. For “RHLVKVPCRIGASHTTGRLILPTLLANLSAVSDRFDFQVTLANSAEILTAMSQHKLDFGLVEKPLVTDQLNRLPFGHDELVHAGDFASPLWLLREPNSGVRHYTNAFLKARNIQPAQVMVIHSNQII”, the protein production was “failed”. In the case of “RLEITPEAFLSDPTPAGVAARAAYELDPDIHVLPLADGTGEPLYLLHPSGGDVLCYMGLARELQGRPVYAVADPGLEDTPMPVDLDVVALTYGRVIMAHRAGLADTGKHGVREATAGYLIGGWSMGGTVAQRVAVQWRDQGIAVGALVLIDSNSPDRIRALTGMNDREVDAEFARRYLRSLQAFGAKAVDASAVTESDPASGVARALAGQGLALKDVERRISVFTRHLAGLAQLRVRPLVDVPTLLVIAEHQSPANSGVGMGVDDARDTEHLGWDDNLPTSTTEIMVPGHHYSVLSAPGLEIISEQIRELLA”, the protein production was “failed”. With “RLKVEDALSYLDQVKLQFGSQPQVYNDFLDIMKEFKSQSIDTPGVISRVSQLFKGHPDLIMGFNTFLPPGYKIEVQTNDMVNVTTPGQVHQIPTHGI” the protein production was “failed”. In the case of “RMSHHYATIEVSQQLRQLLGDQLVILLRETPDGQALERSQNDFRRVLEQGRANTVDSAEQAALDGVRDAYLQLQAHTPALLEAPMADNDGFSEAFNGLRLRLQDLQQLALAGISEAE”, the protein production was “not failed”. With “RNGLDLTTYEGQVEGVEIASDPNLKIVGMMTHFPNEGLDEIRRKVDRFKVETKWLMDSAGLKRKDITLHVANSYITLNLPEAHLDMVRPGGMLYGDYPATLPYERIVSFKTRIASLHFFPAGSTIGYGSTKVLERDSILANLPIGYSDGFARSLSNKADVLINGQRARVMGKASMNTTMVDVTDIIGVQANDEVVVFGRQGFEEITAEETEEKSGRILPEHYTIWGATNPRVYR” the protein production was “failed”. In the case of “RNKPKGHLRIAIGGSTACDVLIPLLADFMTSWPDIRINLQVADKPADLISGNIDSAIRGGPMEDSTLIARKIGEATLVTCATPGYLQRYGTPASPDELHHGHRLISYLSPASGRAFPFRFTRH”, the protein production was “failed”. With “RNLEMIDMQIAGTEQLTAFVTFAAANIGAPEQWLTQYYGNLIERKELFGYWHKGKLLAAGECRLFDQYQTEYADLGMIVAQSNRGQGIAKKVLTFLTKHAATQGLTSICSTESNNVAAQKAIAHAGFTSAHRIVQFEFKHA” the protein production was “failed”. For “RPQNTNSWQKDSIEGIDIMLAMDVSGSMQAMDFKPNRLEAAKDVAISFINNRPNDNIGMVTFAGESFTQCPLTTDHTVLLNMVQDLQMGVLDDGTAIGMGLATAVNRLKDSKAKSRVVILLTDGSNNMGDITPRMAADIARTFGIRVYTVGVGTRGEAPFPIQTEFGVRIQNVPVDIDEPTLDGIAEVSGGKYFRAVDNETLNEIYKEIDKLEKTRLMT”, the protein production was “failed”. For “RQLVSGRLEVAADGPHLVMPMLARLRASYPGITVNLRLGNAQETLAALLSEHVDVAVLTEVEARPGLFLEELVNSRICALLPRQHPWCERNEGVPLEELDQQIMVLREPGSITRRTFDRACAEQGVQPRVLLELDSREAVT”, the protein production was “failed”. In the case of “RRCQVHLLDDRKLELLVQPKLLAKELLDLVASHFNLKEKEYFGIAFTDETGHLNWLQLDRRVLEHDFPKKSGPVVLYFCVR”, the protein production was “failed”. For “RRGWVREVTAEVWTGPLAPVADLAGDTGVVLSREADETWLARYQRKGVSEVALRVLESGPSVWFATVPGAEGADGAGGGGGVAAIGRCVVDGRWASFAAVEVDPAQRRRGLATAVMAALARRALDEGASAAWLQVETDNAGARALYAGMGFAAHHSYHHYREPAAAGTDR”, the protein production was “failed”. With “RRRNQKRANAERERLRQIIDTIPQQVFVKDADGTYTLANKAAAAAHGVAVERLEGATHDEFALSDEQRDFKSDDAAVIENGESVHIEEDGLVEADGSSHTVQTDIVPIEIASGERRALVVATDIT” the protein production was “failed”. In the case of “RSIRLPETIDLGALYLSMKDTEKGIKELNLEKDKKIFNHCFTGNCVIDWLVSNQSVRNRQEGLMIASSLLNEGYLQPAGDMSKSAVDGTAENPFLDNPDAFYYFPDSGFFCEEN”, the protein production was “not failed”. With “RSSEWLEKWQFVNGRFREHLQTISSEDVSFEGNLYRILQHLVPENSSLFVGNSMPIRDVDTFFEKQDRPFRIYSNRGANGIDGVVSSAMGVCEGTKAPVTLVIGDLSFYHDLNGLLAAKKLGIPLTVILVNNDGGGIFSFLPQASEKTHFEDLFGTPTGLDFKHAAALYGGTYSCPASWDEFKTAYAPQADKPGLHLIEIKTDRQSRVQLHRDMLNEAVREVKKQWEL” the protein production was “failed”. For “RSTRQQAGREAEAFALQFLQQQGLRLIEQNWLCKRGELDLVMLDGDTVVFVEVRYRRHCGWGGAVESVDFRKQGKLVTAAQLFLQQVSCWADYPCRFDVIAIEGSPGSFD”, the protein production was “failed”. With “RVGINQLVQHPALDAATTGFKEAFEEAGVDVTFDEQNANGEQGTALTISQQFASDNLDLVLAVATPAAQATAQNITDIPVLFTAVTDAVSAELVDSNEAPGGNVTGTSDIAPIEQQLELLQQLVPDAKSIGIVYASGEVNSQVQVDEVTKAAEPLGLSVNTQTVTTVNEIQQAVEALGDVDVIYVPTDNMVVSGISSLVQVAEQKQIPVIGAESGTVEGGALATLGIDYTELGRQTGEMALRILQDGEDPATMPVETATEFTYVINEDAAERQGVEIPQEILDKAERV” the protein production was “not failed”. For “SAAATGPSFWLGNETLKVPLALFALNRQRLCERLRKNPAVQAGSIVVLQGGEETQRYCTDTGVLFRQESFFHWAFGVTEPGCYGVIDVDTGKSTLFVPRLPASHATWMGKIHSKEHFKEKYAVDDVQYVDEIASVLTSQKPSVLLTLRGVNTDSGSVCREASFDGISKFEVNNTILHPEIVECRVFKTDMELEVLRYTNKISSEAHREVMKAVKVGMKEYELESLFEHYCYSRGGMRHSSYTCICGSGENSAVLHYGHAGAPNDRTIQNGDMCLFDMGGEYYCFASDITCSFPANGKFTADQKAVYEAVLRSSRAVMGAMKPGVWWPDMHRLADRIHLEELAHMGILSGSVDAMVQAHLGAVFMPHGLGHFLGIDVHDVGGYPEGVERIDEPGLRSLRTARHLQPGMVLTVEPGIYFIDHLLDEALADPARASFLNREVLQRFRGFGGVRIEEDVVVTDSGIELLTCVPRTVEEIEACMAGCDKAFTPFSGPK”, the protein production was “failed”. With “SAAHQMDSITYSNNVTQQYIQPQSLQDISAVEDEIQNKIEAARQESKQLHAQINKAKHKIQDASLFQMANKVTSLTKNKINLKPNIVLKGHNNKISDFRWSRDSKRILSASQDGFMLIWDSASGLKQNAIPLDSQWVLSCAISPSSTLVASAGLNNNCTIYRVSKENRVAQNVASIFKGHTCYISDIEFTDNAHILTASGDMTCALWDIPKAKRVREYSDHLGDVLALAIPEEPNSENSSNTFASCGSDGYTYIWDSRSPSAVQSFYVNDSDINALRFFKDGMSIVAGSDNGAINMYDLRSDCSIATFSLFRGYEERTPTPTYMAANMEYNTAQSPQTLKSTSSSYLDNQGVVSLDFSASGRLMYSCYTDIGCVVWDVLKGEIVGKLEGHGGRVTGVRSSPDGLAVCTGSWDSTMKIWSPGYQ” the protein production was “failed”. In the case of “SAASQAGSNYPRCWNCGGPWGPGREDRFFCPQCRALQAPDPTRDYFSLMDCNRSFRVDTAKLQHRYQQLQRLVHPDFFSQRSQTEKDFSEKHSTLVNDAYKTLLAPLSRGLYLLKLHGIEIPERTDYEMDRQFLIEIMEINEKLAEAESEAAMKEIESIVKAKQKEFTDNVSSAFEQDDFEEAKEILTKMRYFSNIEEKIKLKKIPL”, the protein production was “not failed”.
